From US20160324962A1, “COMPOSITIONS AND METHODS FOR TREATING SARCOMA” (MEDIMMUNE, LLC, priority 2013, published 2016)

Tests used:
[1] = system: RD-ES cells; assay: Cytotoxicity assay, MEDI-573 and mTOR inhibitors; format: cell-based; conditions: agents alone or in combination (FIG. 14)
[2] = biological target: T1, IGF-2 in SJSA-1 tumors (Homo sapiens, UniProt P01344); assay: Free IGF ligands in xenograft tumors (ELISA); format: in vivo, mouse xenograft; conditions: even at the lowest dose of 10 mg/kg
T1 construct: endogenous in cells; host or cells: SJSA-1 (osteosarcoma) xenograft tumors in athymic nude mice
T1 sequence (P01344 25-91): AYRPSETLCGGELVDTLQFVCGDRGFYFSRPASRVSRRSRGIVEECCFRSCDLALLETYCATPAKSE
Protocol: (§1) Free IGF ligands were measured in xenograft tumors in untreated mice and in mice treated with different amounts of MEDI-573. […] Despite KHOS cells being unresponsive to IGF-1 and/or IGF-2 stimulation, IGF-2 levels were examined in a KHOS/NP model.
(§2) Sarcoma cell lines were purchased from American type Culture Collection (Manassas, Va.). CellTiter-Glo reagents were obtained from Promega (Madison, Wis.). Whole cell lysate kits for pIGF-1R, pIR-A, and pAKT were purchased from Meso Scale Discovery (MSD; Rockville, Md.). ELISA kits for total IGF-1 and IGF-1R were purchased from R&D Systems (Minneapolis, Minn.). ELISA kits for total IGF-2 were purchased from Insight Genomics (Falls Church, Va.). An ELISA kit for detecting free IGF-1 and IGF-2 was developed in house. Human IGF-1 and IGF-2 were obtained from R&D Systems (Minneapolis, Minn.). Antibodies for detecting phospho-AKT, phospho-4EBP1, phospho-S6K, and GAPDH were from Cell Signaling Technology (Beverly, Mass.).

[3] = biological target: T2, human IGF-2 in KHOS/NP model (Homo sapiens, UniProt P01344); assay: Free IGF ligands in xenograft tumors (ELISA); format: in vivo, mouse xenograft; conditions: up to 60 mg/kg
T2 construct: endogenous in cells; host or cells: KHOS/NP (osteosarcoma) xenograft tumors in athymic nude mice
T2 sequence (P01344 25-91): as above
Protocol: as §1, §2

[4] = biological target: T3, IGF-1 in RD-ES tumors (Homo sapiens, UniProt P05019); assay: Free IGF ligands in xenograft tumors (ELISA); format: in vivo, mice; conditions: different amounts of MEDI-573
T3 construct: endogenous in cells; host or cells: RD-ES (Ewing's sarcoma) xenograft tumors in athymic nude mice
T3 sequence (P05019 49-118): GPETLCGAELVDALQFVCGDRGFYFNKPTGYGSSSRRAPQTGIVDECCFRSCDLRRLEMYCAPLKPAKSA
Protocol: as §1, §2

[5] = system: KHOS xenograft model; assay: Xenograft efficacy study in mice; format: in vivo; conditions: KHOS xenografts, MEDI-573 alone
From the text: (§3) Although proliferation of SK-ES-1 and SJCRH30 cells was inhibited by MEDI-573 in vitro in the absence of exogenous IGFs, the in vivo growth of these two models was not effected by MEDI-573 treatment.
(§4) For in vivo efficacy studies, five million sarcoma cells in 50% matrigel were inoculated subcutaneously into each female athymic nude mice. When tumors reach approximately 150-200 mm^3, mice were randomly assigned into groups (10 mice per group). MEDI-573 was administrated intraperitoneally twice per week at indicated doses. The dose regimen for AZD2014 was oral once every day, for rapamycin was intraperitoneal injection every 3 days. Tumor volumes were measured twice weekly with calipers. Tumor growth inhibition was calculated on the last day of study relative to the initial and final mean tumor volume of the control group.

[6] = system: SJSA-1 (an osteosarcoma model) xenografts; assay: Xenograft efficacy study in mice; format: in vivo; conditions: SJSA-1 xenografts, MEDI-573 alone
From the text: as §3, §4

[7] = system: SJCRH30; assay: Xenograft efficacy study in mice; format: in vivo; conditions: SJCRH30 model
From the text: as §3, §4

[8] = system: SK-ES-1; assay: Xenograft efficacy study in mice; format: in vivo; conditions: SK-ES-1 model
From the text: as §3, §4

- free IGF-2 in tumors [2]: almost completely neutralized
- human IGF-2 levels in tumors [3]: Dose-dependent inhibition
- free IGF-1 in tumors [4]: dose-dependent suppression
B1: MEDI-573: fully human monoclonal IgG2 lambda antibody that binds IGF-2 with cross reactivity to IGF-1; hybridoma 7.159.2, ATCC PTA-7424 (antibody)
heavy: QVQLVQSGAEVKKPGASVKVSCKASGYTFTSYDINWVRQATGQGLEWMGWMNPNSGNTGYAQKFQGRVTMTRNTSISTAYMELSSLRSEDTAVYYCARDPYYYYYGMDVWGQGTTVTVSSASTKGPSVFPLAPCSRSTSESTAALGCLVKDYFPEPVTVSWNSGALTSGVHTFPAVLQSSGLYSLSSVVTVPSSNFGTQTYTCNVDHKPSNTKVDKTVERKCCVECPPCPAPPVAGPSVFLFPPKPKDTLMISRTPEVTCVVVDVSHEDPEVQFNWYVDGVEVHNAKTKPREEQFNSTFRVVSVLTVVHQDWLNGKEYKCKVSNKGLPAPIEKTISKTKGQPREPQVYTLPPSREEMTKNQVSLTCLVKGFYPSDIAVEWESNGQPENNYKTTPPMLDSDGSFFLYSKLTVDKSRWQQGNVFSCSVMHEALHNHYTQKSLSLSPGK
light: QSVLTQPPSVSAAPGQKVTISCSGSSSNIENNHVSWYQQLPGTAPKLLIYDNNKRPSGIPDRFSGSKSGTSATLGITGLQTGDEADYYCETWDTSLSAGRVFGGGTKLTVLGQPKAAPSVTLFPPSSEELQANKATLVCLISDFYPGAVTVAWKADSSPVKAGVETTTPSKQSNNKYAASSYLSLTPEQWKSHRSYSCQVTHEGSTVEKTVAPTECS
- decrease in cell viability [1]: 56%
- response in vivo [5]: did not respond
- tumor growth inhibition [6]: Comparable results
- in vivo growth [7]: not effected
- in vivo growth [8]: not effected
